From the Human Domainome abundance scans (Beltran et al. 2025)

B1: Dystrobrevin alpha, residues 235 to 294; numbered along this chain, Q9Y4J8 (parent)
chain: ENVFHPVECSYCHSESMMGFRYRCQQCHNYQLCQDCFWRGHAGGSHSNQHQMKEYTSWKS

Variants of: B1
Assay: abundance fitness (aPCA) (normalised: wild type 0, dead -1); higher = more abundant; growth selection in yeast, the domain comes from the species named
Conditions: Homo sapiens

Abundance fitness of substitutions, site by site:
C36: A -0.881 | W -0.94 | Q -0.723 | Y -0.734 | L -0.817 | P -0.565 | F -0.994 | R -0.695 | I -0.733 | S -0.992 | G -0.596 | M -0.723
Q26: S -0.024 | E -0.058 | D 0.341 | N 0.022 | C -0.301 | I 0.011 | W -0.498 | G -0.277 | F -0.283 | V 0.273 | R -0.232 | K -0.288 | M -0.355 | A 0.006 | L -0.287 | T 0.012 | H -0.315 | P -0.545
W38: F 0.099 | I 0.318 | C 0.215 | A 0.305 | H 0.014 | S 0.343 | E 0.287 | P -0.146 | Q 0.228 | L 0.167 | N 0.308 | K 0.191 | R 0.364 | M 0.37 | Y 0.214 | D 0.288 | V 0.13 | T 0.349
N29: S -0.063 | D 0.052 | G -0.058 | M -0.044 | P -0.388 | C 0.186 | L -0.125 | A -0.028 | E -0.152 | R -0.171 | H -0.075 | W -0.183 | K -0.156 | T -0.213 | F 0.007 | Q 0.1 | V -0.281 | Y -0.204
Q25: T -0.004 | G -0.202 | E 0.078 | P -0.426 | Y -0.327 | V 0.019 | R -0.158 | N -0.128 | C -0.102 | M 0.061 | S -0.159 | D -0.117 | A -0.213 | W -0.662 | K -0.003 | H -0.193 | L -0.026 | F -0.325 | I -0.208
L32: Y -0.38 | C 0.038 | R -0.647 | G -0.511 | S -0.308 | T 0.053 | Q -0.455 | A -0.656 | E -0.395 | K -0.538 | W -0.751 | M -0.793 | D -0.356 | V -0.102
C24: V -0.838 | W -1.07 | Y -0.935
H41: P -0.192 | F -0.044 | R 0.067 | A 0.013 | V 0.122 | D -0.296 | G -0.312 | N 0.063 | E -0.09 | S 0.037 | Q 0.146 | I -0.284 | C 0.013 | W -0.323 | M -0.014 | Y -0.127 | L -0.038 | K 0.089
Q31: K -0.318 | P -0.536 | L -0.153 | F 0.119 | V 0.098 | T 0.083 | C -0.151 | I -0.053 | W 0.11 | Y -0.034 | E 0.112 | N -0.202 | A -0.085 | R -0.318 | D -0.012 | S -0.007
C27: H -0.814 | K -0.745 | N -0.841 | Q -0.943 | F -0.434 | T -0.877 | A -0.727 | P -0.578 | V -0.85 | E -0.717 | D -0.667 | M -0.814 | R -0.876 | L -0.998 | W -0.838
G40: V -0.266 | E -0.284 | T -0.366 | A -0.391 | M -0.404 | W -0.352 | C -0.227 | N -0.138 | R -0.206 | L -0.384 | I -0.27 | S -0.229 | K -0.045 | D -0.166 | F -0.193 | Q -0.281
